In patent US20190375824A1 (PANASONIC INTELLECTUAL PROPERTY MANAGEMENT, published 2019) one finds Kd, koff and kon data, which are given here for nine molecules.

The target of the assay is T1, human serum albumin (human, UniProt P02768 25-609).
T1 construct: Antigen in the SPR assay
Kind of assay: SPR. In general terms: In SPR one partner is held on a chip, and binding of the other changes the refractive index at the surface.

One may read the Kd as a measure of binding affinity in units of concentration. Read a low Kd as a tighter complex. The term koff denotes the first-order rate constant of dissociation. Broadly, the kon is a measure of how fast the partners come together.

Residue numbers refer to the chain shown, from its start. Numbers in names are those of the source.

Procedure: The binding affinity of the provided VHH antibodies to human serum albumin was measured with surface plasmon resonance.

B1: VHH antibody of SEQ ID NO: 1 (VHH)
VHH: QVQLVESGGGLVQAGDSLRLSCAASGRTFSGYAMGWFRQAPGKEREFVARINWSGTLTYYADSVKGRFTGSRDNAKNTVYLQMNSLKPEDTAVYYCAQRGDSGSNYDPSGYSYWGQGTQVTVSS
notes: Isolated from a phage library; also called WT VHH
Molecule B1 registered a Kd of 261 nM, an off-rate (koff) of 0.371 s⁻¹ and a kon of 1.42e+06 M⁻¹ s⁻¹.

B2: VHH antibody in which glycine in position 36 of SEQ ID NO: 1 was substituted (SEQ ID NO: 3) (VHH)
VHH: B1 VHH with G31D
notes: Text says asparagine at IMGT 36; Expressed in E. coli; also called G36D mutant
Regarding B2, the Kd amounted to 61.4 nM, the koff stood at 0.125 s⁻¹ and the kon worked out at 2.04e+06 M⁻¹ s⁻¹.

B3: VHH antibody in which glycine in position 36, glycine in position 78, and serine in position 116 of SEQ ID NO: 1 were substituted (SEQ ID NO: 10) (VHH)
VHH: B1 VHH with G31D, G70A, S112R
notes: Text says asparagine at IMGT 36; also called G36D/G78A/S116R mutant
As to B3, the Kd was 365 nM, the koff was found to be 0.411 s⁻¹ and the on-rate constant (kon) was found to be 1.13e+06 M⁻¹ s⁻¹.

B4: VHH antibody in which arginine in position 50 of SEQ ID NO: 1 was substituted (SEQ ID NO: 4) (VHH)
VHH: B1 VHH with R45L
notes: Text says asparagine at IMGT 50; Expressed in E. coli; also called R50L mutant
In the case of B4, the Kd turned out to be 157 nM, the koff worked out at 0.303 s⁻¹ and the kon amounted to 1.93e+06 M⁻¹ s⁻¹.

B5: VHH antibody in which glycine in position 36, arginine in position 50, and serine in position 116 of SEQ ID NO: 1 were substituted (SEQ ID NO: 9) (VHH)
VHH: B1 VHH with G31D, R45L, S112R
notes: Text says asparagine at IMGT 36; also called G36D/R50L/S116R mutant
Regarding B5, the Kd was determined as 77.9 nM, the koff came out at 0.0879 s⁻¹ and the kon came to 1.13e+06 M⁻¹ s⁻¹.

B6: VHH antibody in which glycine in position 36 and serine in position 116 of SEQ ID NO: 1 were substituted (SEQ ID NO: 7) (VHH)
VHH: B1 VHH with G31D, S112R
notes: Text says asparagine at IMGT 36; also called G36D/S116R mutant
In turn, B6 returned an equilibrium dissociation constant (Kd) of 44.7 nM, an off-rate constant (koff) of 0.0643 s⁻¹ and a kon of 1.44e+06 M⁻¹ s⁻¹.

B7: VHH antibody in which serine in position 116 of SEQ ID NO: 1 was substituted with arginine (SEQ ID NO: 6) (VHH)
VHH: B1 VHH with S112R
notes: Expressed in E. coli; also called S116R mutant
As for B7, the Kd came out at 35.6 nM, the off-rate (koff) was found to be 0.591 s⁻¹ and the kon was 1.66e+07 M⁻¹ s⁻¹.

B8: VHH antibody in which glycine in position 78 of SEQ ID NO: 1 was substituted with alanine (SEQ ID NO: 5) (VHH)
VHH: B1 VHH with G70A
notes: Expressed in E. coli; also called G78A mutant
Turning to B8, the dissociation constant Kd was 13200 nM, the koff was 0.806 s⁻¹ and the on-rate (kon) came out at 61200 M⁻¹ s⁻¹.

B9: VHH antibody in which glycine in position 36, arginine in position 50, glycine in position 78, and serine in position 116 of SEQ ID NO: 1 were substituted (SEQ … (VHH)
VHH: B1 VHH with G31D, R45L, G70A, S112R
notes: Text says asparagine at IMGT 36; also called G36D/R50L/G78A/S116R mutant
On to B9, for which the Kd was 380 nM, the koff was 0.355 s⁻¹ and the on-rate (kon) worked out at 933000 M⁻¹ s⁻¹.
